Measured values taken from patent publication US20140087995A1 (published 2014).
Numbered stars: 1 amine (or outer) side, 2 acyl side, 3 side chain; on linkers, the order of the positions; unused ones are H or OH. Bridge positions count the residues as written; N and C are the ends. Side chains are listed from the residue outwards. Ends that are not written are not given here. * marks the point of attachment. C20 diacid = O=C(O)CCCCCCCCCCCCCCCCCCC(=O)*; γGlu = O=C(O)[C@H](CCC(=O)[*:2])N[*:1]

T1: human calcitonin receptor (human, UniProt P30988 25-474)
T1 construct: whole, on cells; Used as cell membranes; also called hCTR; hCT
T1 sequence (looked up): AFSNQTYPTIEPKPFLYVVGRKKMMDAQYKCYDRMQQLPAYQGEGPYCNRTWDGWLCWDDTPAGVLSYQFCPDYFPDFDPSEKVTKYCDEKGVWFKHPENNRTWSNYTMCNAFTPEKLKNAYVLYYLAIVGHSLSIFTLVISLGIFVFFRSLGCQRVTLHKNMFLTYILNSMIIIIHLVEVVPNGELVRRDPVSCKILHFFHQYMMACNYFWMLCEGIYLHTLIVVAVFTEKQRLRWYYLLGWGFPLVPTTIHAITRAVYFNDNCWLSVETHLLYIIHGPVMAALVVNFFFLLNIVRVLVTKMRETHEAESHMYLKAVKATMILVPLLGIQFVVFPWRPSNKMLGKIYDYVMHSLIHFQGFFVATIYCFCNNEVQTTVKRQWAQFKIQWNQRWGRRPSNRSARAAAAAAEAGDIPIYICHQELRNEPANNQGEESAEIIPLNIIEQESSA

B1: N^ε1-[(4S)-4-carboxy-4-(19-carboxynonadecanoylamino)butanoyl]-[Arg14,Arg17,Pro21,Pro27,Pro34]-h-amylin (peptide)
peptide: K([γGlu-C20 diacid])CNTATCATQRLARFLRHSSPNFGAIPSSTNVGPNTY-NH2
modifications: disulfide 2-7; N-terminus assumed
SMILES: CC[C@H](C)[C@H](NC(=O)[C@H](C)NC(=O)CNC(=O)[C@H](Cc1ccccc1)NC(=O)[C@H](CC(N)=O)NC(=O)[C@@H]1CCCN1C(=O)[C@H](CO)NC(=O)[C@H](CO)NC(=O)[C@H](Cc1c[nH]cn1)NC(=O)[C@H](CCCNC(=N)N)NC(=O)[C@H](CC(C)C)NC(=O)[C@H](Cc1ccccc1)NC(=O)[C@H](CCCNC(=N)N)NC(=O)[C@H](C)NC(=O)[C@H](CC(C)C)NC(=O)[C@H](CCCNC(=N)N)NC(=O)[C@H](CCC(N)=O)NC(=O)[C@@H](NC(=O)[C@H](C)NC(=O)[C@@H]1CSSC[C@H](NC(=O)[C@@H](N)CCCCNC(=O)CC[C@H](NC(=O)CCCCCCCCCCCCCCCCCCC(=O)O)C(=O)O)C(=O)N[C@@H](CC(N)=O)C(=O)N[C@@H]([C@@H](C)O)C(=O)N[C@@H](C)C(=O)N[C@@H]([C@@H](C)O)C(=O)N1)[C@@H](C)O)C(=O)N1CCC[C@H]1C(=O)N[C@@H](CO)C(=O)N[C@@H](CO)C(=O)N[C@H](C(=O)N[C@@H](CC(N)=O)C(=O)N[C@H](C(=O)NCC(=O)N1CCC[C@H]1C(=O)N[C@@H](CC(N)=O)C(=O)N[C@H](C(=O)N[C@@H](Cc1ccc(O)cc1)C(N)=O)[C@@H](C)O)C(C)C)[C@@H](C)O
notes: also called compound 65
B2: N^ε1-[(4S)-4-carboxy-4-(19-carboxynonadecanoylamino)butanoyl]-[Glu14,Arg17,Pro21,Pro27,Pro34,Glu35]-h-amylin (peptide)
peptide: K([γGlu-C20 diacid])CNTATCATQRLAEFLRHSSPNFGAIPSSTNVGPETY-NH2
modifications: disulfide 2-7; N-terminus assumed
SMILES: CC[C@H](C)[C@H](NC(=O)[C@H](C)NC(=O)CNC(=O)[C@H](Cc1ccccc1)NC(=O)[C@H](CC(N)=O)NC(=O)[C@@H]1CCCN1C(=O)[C@H](CO)NC(=O)[C@H](CO)NC(=O)[C@H](Cc1c[nH]cn1)NC(=O)[C@H](CCCNC(=N)N)NC(=O)[C@H](CC(C)C)NC(=O)[C@H](Cc1ccccc1)NC(=O)[C@H](CCC(=O)O)NC(=O)[C@H](C)NC(=O)[C@H](CC(C)C)NC(=O)[C@H](CCCNC(=N)N)NC(=O)[C@H](CCC(N)=O)NC(=O)[C@@H](NC(=O)[C@H](C)NC(=O)[C@@H]1CSSC[C@H](NC(=O)[C@@H](N)CCCCNC(=O)CC[C@H](NC(=O)CCCCCCCCCCCCCCCCCCC(=O)O)C(=O)O)C(=O)N[C@@H](CC(N)=O)C(=O)N[C@@H]([C@@H](C)O)C(=O)N[C@@H](C)C(=O)N[C@@H]([C@@H](C)O)C(=O)N1)[C@@H](C)O)C(=O)N1CCC[C@H]1C(=O)N[C@@H](CO)C(=O)N[C@@H](CO)C(=O)N[C@H](C(=O)N[C@@H](CC(N)=O)C(=O)N[C@H](C(=O)NCC(=O)N1CCC[C@H]1C(=O)N[C@@H](CCC(=O)O)C(=O)N[C@H](C(=O)N[C@@H](Cc1ccc(O)cc1)C(N)=O)[C@@H](C)O)C(C)C)[C@@H](C)O
B3: N^ε1-[(4S)-4-carboxy-4-(19-carboxynonadecanoylamino)butanoyl]-[Glu14,Arg17,Pro21,Pro27,His34,Glu35]-h-amylin (peptide)
peptide: K([γGlu-C20 diacid])CNTATCATQRLAEFLRHSSPNFGAIPSSTNVGHETY-NH2
modifications: disulfide 2-7; N-terminus assumed
SMILES: CC[C@H](C)[C@H](NC(=O)[C@H](C)NC(=O)CNC(=O)[C@H](Cc1ccccc1)NC(=O)[C@H](CC(N)=O)NC(=O)[C@@H]1CCCN1C(=O)[C@H](CO)NC(=O)[C@H](CO)NC(=O)[C@H](Cc1c[nH]cn1)NC(=O)[C@H](CCCNC(=N)N)NC(=O)[C@H](CC(C)C)NC(=O)[C@H](Cc1ccccc1)NC(=O)[C@H](CCC(=O)O)NC(=O)[C@H](C)NC(=O)[C@H](CC(C)C)NC(=O)[C@H](CCCNC(=N)N)NC(=O)[C@H](CCC(N)=O)NC(=O)[C@@H](NC(=O)[C@H](C)NC(=O)[C@@H]1CSSC[C@H](NC(=O)[C@@H](N)CCCCNC(=O)CC[C@H](NC(=O)CCCCCCCCCCCCCCCCCCC(=O)O)C(=O)O)C(=O)N[C@@H](CC(N)=O)C(=O)N[C@@H]([C@@H](C)O)C(=O)N[C@@H](C)C(=O)N[C@@H]([C@@H](C)O)C(=O)N1)[C@@H](C)O)C(=O)N1CCC[C@H]1C(=O)N[C@@H](CO)C(=O)N[C@@H](CO)C(=O)N[C@H](C(=O)N[C@@H](CC(N)=O)C(=O)N[C@H](C(=O)NCC(=O)N[C@@H](Cc1c[nH]cn1)C(=O)N[C@@H](CCC(=O)O)C(=O)N[C@H](C(=O)N[C@@H](Cc1ccc(O)cc1)C(N)=O)[C@@H](C)O)C(C)C)[C@@H](C)O
notes: also called compound 107
B4: N^ε1-[(4S)-4-carboxy-4-(19-carboxynonadecanoylamino)butanoyl]-[Glu14,Arg17,Pro21,Pro27,Arg34,Glu35]-h-amylin (peptide)
peptide: K([γGlu-C20 diacid])CNTATCATQRLAEFLRHSSPNFGAIPSSTNVGRETY-NH2
modifications: disulfide 2-7; N-terminus assumed
SMILES: CC[C@H](C)[C@H](NC(=O)[C@H](C)NC(=O)CNC(=O)[C@H](Cc1ccccc1)NC(=O)[C@H](CC(N)=O)NC(=O)[C@@H]1CCCN1C(=O)[C@H](CO)NC(=O)[C@H](CO)NC(=O)[C@H](Cc1c[nH]cn1)NC(=O)[C@H](CCCNC(=N)N)NC(=O)[C@H](CC(C)C)NC(=O)[C@H](Cc1ccccc1)NC(=O)[C@H](CCC(=O)O)NC(=O)[C@H](C)NC(=O)[C@H](CC(C)C)NC(=O)[C@H](CCCNC(=N)N)NC(=O)[C@H](CCC(N)=O)NC(=O)[C@@H](NC(=O)[C@H](C)NC(=O)[C@@H]1CSSC[C@H](NC(=O)[C@@H](N)CCCCNC(=O)CC[C@H](NC(=O)CCCCCCCCCCCCCCCCCCC(=O)O)C(=O)O)C(=O)N[C@@H](CC(N)=O)C(=O)N[C@@H]([C@@H](C)O)C(=O)N[C@@H](C)C(=O)N[C@@H]([C@@H](C)O)C(=O)N1)[C@@H](C)O)C(=O)N1CCC[C@H]1C(=O)N[C@@H](CO)C(=O)N[C@@H](CO)C(=O)N[C@H](C(=O)N[C@@H](CC(N)=O)C(=O)N[C@H](C(=O)NCC(=O)N[C@@H](CCCNC(=N)N)C(=O)N[C@@H](CCC(=O)O)C(=O)N[C@H](C(=O)N[C@@H](Cc1ccc(O)cc1)C(N)=O)[C@@H](C)O)C(C)C)[C@@H](C)O
B5: N^ε1-[(4S)-4-carboxy-4-(19-carboxynonadecanoylamino)butanoyl]-[His14,Arg17,Pro21,Pro27,His34]-h-amylin (peptide)
peptide: K([γGlu-C20 diacid])CNTATCATQRLAHFLRHSSPNFGAIPSSTNVGHNTY-NH2
modifications: disulfide 2-7; N-terminus assumed
SMILES: CC[C@H](C)[C@H](NC(=O)[C@H](C)NC(=O)CNC(=O)[C@H](Cc1ccccc1)NC(=O)[C@H](CC(N)=O)NC(=O)[C@@H]1CCCN1C(=O)[C@H](CO)NC(=O)[C@H](CO)NC(=O)[C@H](Cc1c[nH]cn1)NC(=O)[C@H](CCCNC(=N)N)NC(=O)[C@H](CC(C)C)NC(=O)[C@H](Cc1ccccc1)NC(=O)[C@H](Cc1c[nH]cn1)NC(=O)[C@H](C)NC(=O)[C@H](CC(C)C)NC(=O)[C@H](CCCNC(=N)N)NC(=O)[C@H](CCC(N)=O)NC(=O)[C@@H](NC(=O)[C@H](C)NC(=O)[C@@H]1CSSC[C@H](NC(=O)[C@@H](N)CCCCNC(=O)CC[C@H](NC(=O)CCCCCCCCCCCCCCCCCCC(=O)O)C(=O)O)C(=O)N[C@@H](CC(N)=O)C(=O)N[C@@H]([C@@H](C)O)C(=O)N[C@@H](C)C(=O)N[C@@H]([C@@H](C)O)C(=O)N1)[C@@H](C)O)C(=O)N1CCC[C@H]1C(=O)N[C@@H](CO)C(=O)N[C@@H](CO)C(=O)N[C@H](C(=O)N[C@@H](CC(N)=O)C(=O)N[C@H](C(=O)NCC(=O)N[C@@H](Cc1c[nH]cn1)C(=O)N[C@@H](CC(N)=O)C(=O)N[C@H](C(=O)N[C@@H](Cc1ccc(O)cc1)C(N)=O)[C@@H](C)O)C(C)C)[C@@H](C)O
notes: also called compound 81
B6: N^ε1-[(4S)-4-carboxy-4-(19-carboxynonadecanoylamino)butanoyl]-[Arg17,Pro21,Pro27,Arg34]-h-amylin (peptide)
peptide: K([γGlu-C20 diacid])CNTATCATQRLANFLRHSSPNFGAIPSSTNVGRNTY-NH2
modifications: disulfide 2-7; N-terminus assumed
SMILES: CC[C@H](C)[C@H](NC(=O)[C@H](C)NC(=O)CNC(=O)[C@H](Cc1ccccc1)NC(=O)[C@H](CC(N)=O)NC(=O)[C@@H]1CCCN1C(=O)[C@H](CO)NC(=O)[C@H](CO)NC(=O)[C@H](Cc1c[nH]cn1)NC(=O)[C@H](CCCNC(=N)N)NC(=O)[C@H](CC(C)C)NC(=O)[C@H](Cc1ccccc1)NC(=O)[C@H](CC(N)=O)NC(=O)[C@H](C)NC(=O)[C@H](CC(C)C)NC(=O)[C@H](CCCNC(=N)N)NC(=O)[C@H](CCC(N)=O)NC(=O)[C@@H](NC(=O)[C@H](C)NC(=O)[C@@H]1CSSC[C@H](NC(=O)[C@@H](N)CCCCNC(=O)CC[C@H](NC(=O)CCCCCCCCCCCCCCCCCCC(=O)O)C(=O)O)C(=O)N[C@@H](CC(N)=O)C(=O)N[C@@H]([C@@H](C)O)C(=O)N[C@@H](C)C(=O)N[C@@H]([C@@H](C)O)C(=O)N1)[C@@H](C)O)C(=O)N1CCC[C@H]1C(=O)N[C@@H](CO)C(=O)N[C@@H](CO)C(=O)N[C@H](C(=O)N[C@@H](CC(N)=O)C(=O)N[C@H](C(=O)NCC(=O)N[C@@H](CCCNC(=N)N)C(=O)N[C@@H](CC(N)=O)C(=O)N[C@H](C(=O)N[C@@H](Cc1ccc(O)cc1)C(N)=O)[C@@H](C)O)C(C)C)[C@@H](C)O
notes: also called compound 79

Biological target: T1, human calcitonin receptor
Experiment: ratio of hCTR IC50 to hAmylin-R IC50 (reference: human amylin receptor)
Summary of the method: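 Competition binding by SPA uses membrane preparations (35 ng/μL final) in pH 7.4 Hepes buffer with 1 mM CaCl2 and 5 mM MgCl₂. Incubation lasts 120 min at 25° C, and IC₅₀ comes from one-site fitting.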

Ratio hCT/hAmylin binding | Binder
82.4 | B1
13.3 | B2
11.1 | B3
28.5 | B4
87.2 | B5
46.1 | B6

Biological target: T1, human calcitonin receptor
Experiment: SPA competition on BHK cell membranes, 125I-calcitonin as radioligand (Assay VII)
Summary of the method: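 BHK hCTR membranes 35 ng/μL + SPA beads 0.05 mg/well; buffer 50 mM Hepes pH 7.4, 1 mM CaCl2, 5 mM MgCl₂, 0.1% OA, 0.02% Tween20. 120 min, 25° C., shaking. Scintillation count; IC50 by one-site binding competition.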

IC50 [nM] | Binder
53.5 | B1
1.86 | B2
4.28 | B3
6.62 | B4
23.6 | B5
36.4 | B6
